The record followed here is PMC7782405 (Molecular Imaging and Biology, 2020).

Data set [1] is described as follows: in vivo. To be noted: female, athymic Balb/c nude, mouse, iv, total radioactivity, Tumor uptake (PET). The arrangement: species or system mice. As to the method:
(§1) All animal experiments complied with the current laws of the Federal Republic of Germany and were conducted according to German Animal welfare guidelines. Normal female athymic Balb/c nude mice (17–20 g, 4–6 weeks old) were obtained from Janvier SAS (St. Berthevin Cedex, France). Mice were provided with food and water ad libitum. U-87MG tumors were induced on the right shoulder by sub-cutaneous injection of 5 × 10^6 cells in a 100 μl cell suspension of a 1:1 v/v mixture of media with reconstituted basement membrane (GFR BD Matrigel™, Corning BV, Amsterdam, Holland). Static and dynamic PET imaging experiments were conducted on a microPET Focus 120 scanner (Concorde Microsystems). For dynamic PET imaging studies, approximately 5 min prior to recording PET images, mice (n = 3) were anesthetized by inhalation of 2–3 % isoflurane/oxygen gas mixture, fitted with an intravenous catheter and placed on the scanner bed in the prone position. Anesthesia was maintained using 1–2 % isoflurane. For all experiments, animals were injected with 100 μl sterile filtered phosphate-buffered saline formulations pH 7.4 of [^64Cu]Cu-8 and [^64Cu]Cu-9 (~ 500 pmol, 7–11 MBq). Dynamic scans were recorded from 0 to 1 h post radiotracer administration. List-mode data were acquired using a γ-ray energy window of 350–650 keV and a coincidence timing window of 6 ns. For the 24 h p.i. time point, mice were injected 24 h prior to image acquisition and placed in the cages. Five to ten minutes prior to static PET imaging, mice were anesthetized with isoflurane (2–4 % in air) and positioned in the scanner. Animals of the PET imaging studies were included in the ex vivo biodistribution studies (vide infra). Reconstruction was performed using unweighted OSEM2D. Image analysis was performed using AMIDE. Image counts per second per voxel (cps/voxel) were calibrated to activity concentrations (Bq ml^−1) by measuring a 3.5-cm cylinder phantom filled with a known concentration of radioactivity.

In data set [2] the test system is mice bearing U-87MG xenografts. Briefly: in vivo. The note with it: mouse. As to the method: as §1
A short description of data set [3]: in vivo. More on the design: species or system mice. The note with it: female, athymic Balb/c nude, mouse, in vivo, iv, total radioactivity. How it is done:
(§2) All animal experiments complied with the current laws of the Federal Republic of Germany and were conducted according to German Animal welfare guidelines. Normal female athymic Balb/c nude mice (17–20 g, 4–6 weeks old) were obtained from Janvier SAS (St. Berthevin Cedex, France). Mice were provided with food and water ad libitum. U-87MG tumors were induced on the right shoulder by sub-cutaneous injection of 5 × 10^6 cells in a 100 μl cell suspension of a 1:1 v/v mixture of media with reconstituted basement membrane (GFR BD Matrigel™, Corning BV, Amsterdam, Holland). For each compound, a total of three animals were injected with [^64Cu]Cu-8 and [^64Cu]Cu-9 (~ 500 pmol, 7–11 MBq) in 100 μl sterile filtered phosphate-buffered saline via a tail vein. At 1 h p.i., animals were sacrificed by isoflurane anesthesia. Organs of interest were dissected, weighed, and assayed for radioactivity in a gamma counter. The percent injected activity per gram (%IA g^−1) for each tissue was calculated by comparison of the tissue counts to a standard sample prepared from the injectate.

The subject of data set [4] is mice bearing U-87MG xenografts. Briefly: in vivo. The note with it: for reduction of uptake in U-87MG xenografts by co-injection of c(RGDfK) 7: 1 h p.i. How it is done:
as §2

The next data set deals with U-87MG cells. Briefly: Cell internalization assay. It is filed as cell-based, human. To be noted: for specific surface-bound fraction: all time points. As to the method: For cell internalization, U-87MG cells were seeded at a density of 10^6 cells per well in 6-well plates and incubated overnight with medium (Dulbecco modified Eagle medium with GlutaMAX containing 10 % fetal bovine serum, 1 % 10,000 U ml^−1 penicillin and 10,000 U ml^−1 streptomycin, 1 % sodium-pyruvate 100 mM). After 24 h, the medium was removed and the cells were washed with PBS. Approximately 2.5 pmol of [^64Cu]Cu-8 and [^64Cu]Cu-9 was added to the cells (in triplicates) to give a final volume of 1.5 ml PBS in each well followed by incubation for 1 h at 37 °C, 5 % CO2. […] At each time point, the internalization was stopped by removing the medium and washing the cells twice with ice-cold PBS. To remove the receptor-bound radioligand, an acid wash was carried out twice with a 0.1 M glycine buffer pH 2.8 for 5 min on ice. Finally, cells were solubilized with 1 N NaOH. Radioactivity of cell fractions (supernatant, receptor-bound, and internalized) was measured by a Perkin Elmer gamma counter. Experiments were performed twice in triplicate.

Where [5] appears, read: female, athymic Balb/c nude, mouse, in vivo, iv, 1 h.

As to `Cn1ccnc1CN1CCN(CC(=O)NCCCC[C@@H]2NC(=O)[C@@H](Cc3ccccc3)NC(=O)[C@H](CC(=O)O)NC(=O)CNC(=O)[C@H](CCCNC(=N)N)NC2=O)CCN(Cc2nccn2C)CC1` [[^64Cu]Cu-8, metal not drawn], the tissue uptake per volume at 1 h turned out to be 0.91 ± 0.39 %ID/mL in “in vivo [1]” (5 mg/kg) and 2.61 ± 0.65 %ID/mL in the data set “in vivo [1]”. The “liver uptake, normal vs blocking groups (PET)” value in data set [2] is reported as “No significant differences”. Also, in data set [2], the “time to maximum tumor accumulation (TAC)” value lay in the range of 5 to 10 min. Further, the tissue to tissue ratio at 1 h is 15 ± 3.05 in “in vivo [3]” (Tumor-to-blood ratio), 0.86 ± 0.04 in “in vivo [3]” (Tumor-to-kidney ratio), 0.83 ± 0.1 in the data set “in vivo [3]” (Tumor-to-liver ratio) and 10.5 ± 4.79 in “in vivo [3]” (Tumor-to-muscle ratio). In addition, the “reduction of uptake in U-87MG xenografts by co-injection of c(RGDfK) 7” value in data set [4] amounted to 89%. Besides, the Tumor-to-blood ratio in data set [4] (setting [5]) stood at 14.37. In addition, the Tumor-to-kidney ratio in data set [4] (mouse, in vivo) came out at 0.86. In data set [4] (mouse, in vivo), the Tumor-to-liver ratio amounted to 0.84. Moreover, the “receptor-mediated (αvß3-specific) internalization” value was 1.4 ± 0.1% in the data set with U-87MG cells (4 h) and 0.2 ± 0.1% in the data set with U-87MG cells (after 30 min). In the data set on U-87MG cells, this compound yielded a specific surface-bound fraction of at most 0.1%.

With `N=C(N)NCCC[C@@H]1NC(=O)[C@H](CCCCNC(=O)CCCCn2ccnc2CN2CCN(Cc3nccn3CCCCC(=O)NCCCC[C@@H]3NC(=O)[C@@H](Cc4ccccc4)NC(=O)[C@H](CC(=O)O)NC(=O)CNC(=O)[C@H](CCCNC(=N)N)NC3=O)CCN(Cc3nccn3CCCCC(=O)NCCCC[C@@H]3NC(=O)[C@@H](Cc4ccccc4)NC(=O)[C@H](CC(=O)O)NC(=O)CNC(=O)[C@H](CCCNC(=N)N)NC3=O)CC2)NC(=O)[C@@H](Cc2ccccc2)NC(=O)[C@H](CC(=O)O)NC(=O)CNC1=O` [[^64Cu]Cu-9, metal not drawn], the tissue uptake per volume at 1 h in “in vivo [1]” (5 mg/kg) was 2.18 ± 0.66 %ID/mL; in the data set “in vivo [1]” it was 4.42 ± 1.1 %ID/mL. Moreover, the “fold higher tumor uptake compared with the monomeric counterpart (PET images)” value in data set [2] was ~ 2 fold. For the same compound, the “liver uptake, normal vs blocking groups (PET)” value in data set [2] is on record as “No significant differences”. In data set [2], the “time to maximum tumor accumulation (TAC)” value was in the range of 5 to 10 min. The tissue to tissue ratio at 1 h in the data set “in vivo [3]” (Tumor-to-kidney ratio) turned out to be 0.73 ± 0.11; in “in vivo [3]” (Tumor-to-liver ratio), 1.03 ± 0.26; in “in vivo [3]” (Tumor-to-muscle ratio), 14.1 ± 3.83. Further, in data set [4], the “reduction of uptake in U-87MG xenografts by co-injection of c(RGDfK) 7” value is reported as 60%. For the same compound, in data set [4] (setting [5]), the Tumor-to-liver ratio was found to be 0.99. Moreover, the Tumor-to-kidney ratio in data set [4] (mouse, in vivo) was found to be 0.73. Further, in data set [4] (mouse, in vivo), the “fold higher tumor uptake compared with the monomer [^64Cu]Cu-8” value was ~ 2.5 fold. For the same compound, the “receptor-mediated (αvß3-specific) internalization” value was 8.7 ± 0.6% in the data set with U-87MG cells (4 h) and 0.7 ± 0.2% in the data set on U-87MG cells (after 30 min). Also, the specific surface-bound fraction with U-87MG cells was at most 0.1%.
